To fix the notation:
T1: FcγRIIa R extracellular domain with C-terminal His tag (human, UniProt P12318 34-217)
T1 construct: extracellular domain; also called FcgRIIa R; 2aR; not shown: His tag at the C terminus
T1 sequence (looked up): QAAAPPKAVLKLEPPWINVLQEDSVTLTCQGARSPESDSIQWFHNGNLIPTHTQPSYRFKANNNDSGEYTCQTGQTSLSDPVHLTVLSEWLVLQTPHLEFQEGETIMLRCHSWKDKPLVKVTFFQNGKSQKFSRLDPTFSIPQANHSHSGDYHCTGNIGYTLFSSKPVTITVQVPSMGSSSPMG

T2: FcγRIIb (human, UniProt P31994 43-217)
T2 construct: extracellular domain; also called FcgRIIb; 2b
T2 sequence (looked up): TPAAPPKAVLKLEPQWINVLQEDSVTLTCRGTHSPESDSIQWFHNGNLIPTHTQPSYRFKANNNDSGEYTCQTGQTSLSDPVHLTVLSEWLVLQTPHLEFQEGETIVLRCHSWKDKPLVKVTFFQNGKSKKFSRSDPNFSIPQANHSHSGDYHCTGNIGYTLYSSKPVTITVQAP

B1: GpH7-A5/GpH7-B3 variant S337_06M/GpL16-k0 (antibody, human IgG1, kappa)
heavy 1: not shown
heavy 2: not shown
light: DIVMTQSPLSLPVTPGEPASISCQASESLVHSNRNTYLHWYLQKPGQSPQLLIYKVSNRFSGVPDRFSGSGSGTDFTLKISRVEAEDVGVYYCSQNTHVPPTFGQGTKVEIERTVAAPSVFIFPPSDEQLKSGTASVVCLLNNFYPREAKVQWKVDNALQSGNSQESVTEQDSKDSTYSLSSTLTLSKADYEKHKVYACEVTHQGLSSPVTKSFNRGEC
notes: heterodimerized: alteration in one H chain only; also called He Ab S337_06M
B2: GpH7-A5/GpH7-B3 variant S267_09D/GpL16-k0 (antibody, human IgG1, kappa)
heavy 1: not shown
heavy 2: not shown
light: B1 light
notes: heterodimerized: alteration in one H chain only; also called He Ab S267_09D
B3: GpH7-A5/GpH7-B3 variant S267_03V/GpL16-k0 (antibody, human IgG1, kappa)
heavy 1: not shown
heavy 2: not shown
light: B1 light
notes: heterodimerized: alteration in one H chain only; also called He Ab S267_03V
B4: GpH7-A5/GpH7-B3 variant S239_10E/GpL16-k0 (antibody, human IgG1, kappa)
heavy 1: not shown
heavy 2: not shown
light: B1 light
notes: heterodimerized: alteration in one H chain only; also called He Ab S239_10E
B5: GpH7-A5/GpH7-B3 variant L328_13S/GpL16-k0 (antibody, human IgG1, kappa)
heavy 1: not shown
heavy 2: not shown
light: B1 light
notes: heterodimerized: alteration in one H chain only; also called He Ab L328_13S
B6: GpH7-A5/GpH7-B3 variant S324_06M/GpL16-k0 (antibody, human IgG1, kappa)
heavy 1: not shown
heavy 2: not shown
light: B1 light
notes: heterodimerized: alteration in one H chain only; also called He Ab S324_06M
B7: GpH7-A5/GpH7-B3 variant T335_10E/GpL16-k0 (antibody, human IgG1, kappa)
heavy 1: not shown
heavy 2: not shown
light: B1 light
notes: heterodimerized: alteration in one H chain only; also called He Ab T335_10E
B8: GpH7-A5/GpH7-B3 variant T335_13S/GpL16-k0 (antibody, human IgG1, kappa)
heavy 1: not shown
heavy 2: not shown
light: B1 light
notes: heterodimerized: alteration in one H chain only; also called He Ab T335_13S
B9: GpH7-A5/GpH7-B3 variant S337_20W/GpL16-k0 (antibody, human IgG1, kappa)
heavy 1: not shown
heavy 2: not shown
light: B1 light
notes: heterodimerized: alteration in one H chain only; also called He Ab S337_20W
B10: GpH7-A5/GpH7-B3 variant S337_10E/GpL16-k0 (antibody, human IgG1, kappa)
heavy 1: not shown
heavy 2: not shown
light: B1 light
notes: heterodimerized: alteration in one H chain only; also called He Ab S337_10E
B11: GpH7-A5/GpH7-B3 variant P331_02A/GpL16-k0 (antibody, human IgG1, kappa)
heavy 1: not shown
heavy 2: not shown
light: B1 light
notes: heterodimerized: alteration in one H chain only; also called He Ab P331_02A
B12: GpH7-A5/GpH7-B3 variant S337_19Q/GpL16-k0 (antibody, human IgG1, kappa)
heavy 1: not shown
heavy 2: not shown
light: B1 light
notes: heterodimerized: alteration in one H chain only; also called He Ab S337_19Q
B13: GpH7-A5/GpH7-B3 variant P331_04F/GpL16-k0 (antibody, human IgG1, kappa)
heavy 1: not shown
heavy 2: not shown
light: B1 light
notes: heterodimerized: alteration in one H chain only; also called He Ab P331_04F
B14: GpH7-A5/GpH7-B3 variant K334_13S/GpL16-k0 (antibody, human IgG1, kappa)
heavy 1: not shown
heavy 2: not shown
light: B1 light
notes: heterodimerized: alteration in one H chain only; also called He Ab K334_13S
B15: GpH7-A5/GpH7-B3 variant S337_18N/GpL16-k0 (antibody, human IgG1, kappa)
heavy 1: not shown
heavy 2: not shown
light: B1 light
notes: heterodimerized: alteration in one H chain only; also called He Ab S337_18N
B16: GpH7-A5/GpH7-B3 variant P331_15Y/GpL16-k0 (antibody, human IgG1, kappa)
heavy 1: not shown
heavy 2: not shown
light: B1 light
notes: heterodimerized: alteration in one H chain only; also called He Ab P331_15Y
B17: GpH7-A5/GpH7-B3 variant K334_04F/GpL16-k0 (antibody, human IgG1, kappa)
heavy 1: not shown
heavy 2: not shown
light: B1 light
notes: heterodimerized: alteration in one H chain only; also called He Ab K334_04F
B18: GpH7-A5/GpH7-B3 variant T335_05P/GpL16-k0 (antibody, human IgG1, kappa)
heavy 1: not shown
heavy 2: not shown
light: B1 light
notes: heterodimerized: alteration in one H chain only; also called He Ab T335_05P
B19: GpH7-A5/GpH7-B3 variant P238_03V/GpL16-k0 (antibody, human IgG1, kappa)
heavy 1: not shown
heavy 2: not shown
light: B1 light
notes: heterodimerized: alteration in one H chain only; also called He Ab P238_03V
B20: GpH7-A5/GpH7-B3 variant P331_16H/GpL16-k0 (antibody, human IgG1, kappa)
heavy 1: not shown
heavy 2: not shown
light: B1 light
notes: heterodimerized: alteration in one H chain only; also called He Ab P331_16H
B21: GpH7-A5/GpH7-B3 variant D265_15Y/GpL16-k0 (antibody, human IgG1, kappa)
heavy 1: not shown
heavy 2: not shown
light: B1 light
notes: heterodimerized anti-glypican-3 IgG1; alteration in one H chain only; also called He Ab
B22: GpH7-A5/GpH7-B3 variant V266_12R/GpL16-k0 (antibody, human IgG1, kappa)
heavy 1: not shown
heavy 2: not shown
light: B1 light
notes: as for B21
B23: GpH7-A5/GpH7-B3 variant D265_20W/GpL16-k0 (antibody, human IgG1, kappa)
heavy 1: not shown
heavy 2: not shown
light: B1 light
notes: as for B21

The target in one assay is T1, FcγRIIa R extracellular domain with …. The assay can be described thus: SPR (Biacore), relative FcγRIIa R binding, GpH7-A5/GpH7-B3/GpL16-k0 = 100. (In general: In SPR one partner is held on a chip, and binding of the other changes the refractive index at the surface.)
As to B1, the He/Con_2aR is 105 % of control.
Still for that read-out and setting: as for B2, the figure is 173 % of control.
Same read-out and setting: as for B3, the figure is 116 % of control; as for B4, 135 % of control; as for B5, 117 % of control.
Still for that read-out and setting: as for B6, the figure is 123 % of control; as for B7, 111 % of control.
Consider B8, for which the He/Con_2aR is 110 % of control.
B9: the He/Con_2aR was 110 % of control.
Same read-out and setting: as for B10, the figure is 112 % of control; as for B11, 106 % of control.
Take B12: the He/Con_2aR was 106 % of control.
B13: the He/Con_2aR is 111 % of control.
The same measure, in the same setting: as for B14, the figure is 109 % of control; as for B15, 107 % of control.
Still for that read-out and setting: as for B16, the figure is 112 % of control; as for B17, 110 % of control; as for B18, 104 % of control.
With B19, the He/Con_2aR was 120 % of control.
In the case of B20, the He/Con_2aR is 114 % of control.

A further assay deals with T2, FcγRIIb. The assay is described as follows: SPR (Biacore), captured antibody, FcγR as analyte; relative binding, control GpH7-A5/GpH7-B3/GpL16-k0 = 100. The method, then:
The heterodimerized antibodies He Abs in which one of the H chains was introduced with an alteration were assayed for their binding activities to each activating FcγR and inhibitory FcγR according to the method described in Example 4. […] The activating FcγRs in FIGS. 26, 27, 28, and 29 are FcγRIa, FcγRIIa (R), FcγRIIa (H), and FcγRIIIa, respectively.
Analysis of interaction between objective antibody and the FcγR was carried out using Biacore T100 (GE Healthcare). HBS-EP+ (GE Healthcare) was used as the running buffer, and the measurement temperature was set to 25° C. Chips produced by immobilizing the antigen peptide by the amine coupling method to a Series S Sencor Chip CM5 (GE Healthcare), or alternatively, chips produced by allowing preliminarily biotinylated antigen peptides to interact with and immobilize onto a Series S Sensor Chip SA (certified) (GE Healthcare) were used. Antibodies of interest were captured onto an antigen peptide-immobilized chip, and allowed to interact to each FcγR diluted with running buffer. To regenerate and repeatedly use the chip, the antibodies captured on the chip were washed off by reacting 10 mM glycine-HCl, pH 1.5.
B21 showed a He/Con_2b of 0.6 control = 100.
The same measure, in the same setting: as for B22, the figure is -1.1 control = 100; as for B23, 1.1 control = 100.

Values taken from patent US20150344570A1 (published 2015).
